Experiments:
[1] = biological target: human p110γ, biGBac construct co-expressed with human p84 or human p101 (human, UniProt P48736 1-1102); experiment: HDX-MS
[2] = biological target: human p110γ (catalytic subunit of PI3Kγ), co-expressed with mouse p84 or porcine p101 (human, UniProt P48736 1-1102); experiment: SEC
[3] = biological target: porcine p110γ (for X-ray crystallography) (porcine, UniProt O02697 1-1102); experiment: crystal structure
porcine p110γ (for X-ray crystallography), sequence (O02697 whole entry): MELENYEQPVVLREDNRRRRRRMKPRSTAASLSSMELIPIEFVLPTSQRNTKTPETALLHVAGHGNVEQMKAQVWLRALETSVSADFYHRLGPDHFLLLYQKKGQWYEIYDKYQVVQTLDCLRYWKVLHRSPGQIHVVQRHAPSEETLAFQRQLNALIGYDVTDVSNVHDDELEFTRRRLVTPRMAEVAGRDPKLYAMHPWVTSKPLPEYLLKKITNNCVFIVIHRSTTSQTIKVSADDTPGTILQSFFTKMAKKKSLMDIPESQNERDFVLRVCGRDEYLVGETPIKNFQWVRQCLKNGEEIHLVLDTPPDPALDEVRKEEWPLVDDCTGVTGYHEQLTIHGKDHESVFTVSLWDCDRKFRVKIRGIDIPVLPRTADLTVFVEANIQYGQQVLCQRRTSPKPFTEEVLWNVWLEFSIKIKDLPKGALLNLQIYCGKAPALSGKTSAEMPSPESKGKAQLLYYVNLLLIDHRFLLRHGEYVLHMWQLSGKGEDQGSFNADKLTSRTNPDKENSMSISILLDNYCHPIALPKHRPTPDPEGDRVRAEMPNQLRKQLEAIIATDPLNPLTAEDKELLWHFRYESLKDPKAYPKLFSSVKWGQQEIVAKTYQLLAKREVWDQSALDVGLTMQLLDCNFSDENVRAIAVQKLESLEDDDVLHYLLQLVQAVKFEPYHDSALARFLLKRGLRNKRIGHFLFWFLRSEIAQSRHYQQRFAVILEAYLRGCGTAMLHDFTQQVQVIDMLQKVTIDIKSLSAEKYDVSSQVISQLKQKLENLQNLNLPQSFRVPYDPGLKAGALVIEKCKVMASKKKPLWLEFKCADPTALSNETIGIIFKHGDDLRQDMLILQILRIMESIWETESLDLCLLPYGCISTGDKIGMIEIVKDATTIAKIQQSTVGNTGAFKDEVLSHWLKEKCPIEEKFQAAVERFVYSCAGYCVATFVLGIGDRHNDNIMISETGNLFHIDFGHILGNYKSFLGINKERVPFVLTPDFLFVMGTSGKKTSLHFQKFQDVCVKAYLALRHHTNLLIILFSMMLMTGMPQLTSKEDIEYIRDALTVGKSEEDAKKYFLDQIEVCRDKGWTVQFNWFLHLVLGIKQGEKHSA

human p110γ, biGBac construct co-expressed with human p84 or human p101, sequence (P48736 whole entry): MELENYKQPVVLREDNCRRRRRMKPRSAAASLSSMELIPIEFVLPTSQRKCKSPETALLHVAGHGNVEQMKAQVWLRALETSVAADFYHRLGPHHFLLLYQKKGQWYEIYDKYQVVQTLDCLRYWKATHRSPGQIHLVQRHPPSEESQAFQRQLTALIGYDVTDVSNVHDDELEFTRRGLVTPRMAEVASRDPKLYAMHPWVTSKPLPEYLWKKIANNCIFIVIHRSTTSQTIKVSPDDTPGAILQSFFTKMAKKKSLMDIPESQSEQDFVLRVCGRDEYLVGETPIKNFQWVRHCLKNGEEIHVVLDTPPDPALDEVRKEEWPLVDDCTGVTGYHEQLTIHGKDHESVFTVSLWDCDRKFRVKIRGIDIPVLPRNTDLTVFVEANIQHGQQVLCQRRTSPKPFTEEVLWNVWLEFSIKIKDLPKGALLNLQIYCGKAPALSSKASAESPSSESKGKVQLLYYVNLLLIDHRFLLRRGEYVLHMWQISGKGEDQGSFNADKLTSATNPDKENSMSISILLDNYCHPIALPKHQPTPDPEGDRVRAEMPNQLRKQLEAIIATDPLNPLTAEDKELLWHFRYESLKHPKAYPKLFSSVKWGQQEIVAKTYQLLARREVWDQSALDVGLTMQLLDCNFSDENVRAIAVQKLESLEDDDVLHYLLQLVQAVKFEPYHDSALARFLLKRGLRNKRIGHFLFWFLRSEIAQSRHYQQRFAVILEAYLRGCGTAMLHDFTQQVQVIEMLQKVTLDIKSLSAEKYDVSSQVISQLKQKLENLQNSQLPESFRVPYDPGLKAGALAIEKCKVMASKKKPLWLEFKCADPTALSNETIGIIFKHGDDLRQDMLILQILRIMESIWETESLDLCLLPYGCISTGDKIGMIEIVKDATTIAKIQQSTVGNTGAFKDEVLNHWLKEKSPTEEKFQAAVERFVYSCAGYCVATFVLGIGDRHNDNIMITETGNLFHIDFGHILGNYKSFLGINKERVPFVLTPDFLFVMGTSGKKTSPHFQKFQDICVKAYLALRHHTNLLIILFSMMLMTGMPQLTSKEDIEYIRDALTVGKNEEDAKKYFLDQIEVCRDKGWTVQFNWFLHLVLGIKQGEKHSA
human p110γ (catalytic subunit of PI3Kγ), co-expressed with mouse p84 or porcine p101, sequence (P48736 whole entry): as above

binding result [1]	binding result [2]	Binder	also measured
binds		human p101 (regulatory subunit of PI3Kγ), co-expressed with human p110γ (natural protein) MQPGATTCTEDRIQHALERCLHGLSLSRRSTSWSAGLCLNCWSLQELVSRDPGHFLILLEQILQKTREVQEKGTYDLLTPLALLFYSTVLCTPHFPPDSDLLLKAASTYHRFLTWPVPYCSICQELLTFIDAELKAPGISYQRLVRAEQGLPIRSHRSSTVTVLLLNPVEVQAEFLAVANKLSTPGHSPHSAYTTLLLHAFQATFGAHCDVPGLHCRLQAKTLAELEDIFTETAEAQELASGIGDAAEARRWLRTKLQAVGEKAGFPGVLDTAKPGKLHTIPIPVARCYTYSWSQDSFDILQEILLKEQELLQPGILGDDEEEEEEEEEVEEDLETDGHCAERDSLLSTSSLASHDSTLSLASSQASGPALSRHLLTSFVSGLSDGMDSGYVEDSEESSSEWPWRRGSQERRGHRRPGQKFIRIYKLFKSTSQLVLRRDSRSLEGSSDTALPLRRAGSLCSPLDEPVSPPSRAQRSRSLPQPKLGTQLPSWLLAPASRPQRRRPFLSGDEDPKASTLRVVVFGSDRISGKVARAYSNLRRLENNRPLLTRFFKLQFFYVPVKRSHGTSPGACPPPRSQTPSPPTDSPRHASPGELGTTPWEESTNDISHYLGMLDPWYERNVLGLMHLPPEVLCQQSLKAEAQALEGSPTQLPILADMLLYYCRFAARPVLLQVYQTELTFITGEKTTEIFIHSLELGHSAATRAIKASGPGSKRLGIDGDREAVPLTLQIIYSKGAISGRSRWSNLEKVCTSVNLNKACRKQEELDSSMEALTLNLTEVVKRQNSKSKKGFNQISTSQIKVDKVQIIGSNSCPFAVCLDQDERKILQSVVRCEVSPCYKPEKSDLSSPPQTPPDLPAQAAPDLCSLLCLPIMTFSGALP	
	binds	porcine p101 (regulatory subunit of PI3Kγ), co-expressed with human p110γ (natural protein) MQPGATTCTEDRIQHALERCLHGLSLSRRSTSWSAGLCLNCWSLQELVSRDPGHFLILLEQILQKTREVQEKGTYDLLAPLALLFYSTVLCTPHFPPDSDLLLKAARTYHRFLTWPVPYCSICQELLTFIDAELKAPGISYQRLVRAEQGLSTRSHRSSTVTVLLLNPVEVQAEFLDVADKLSTPGPSPHSAYITLLLHAFQATFGAHCDLSGLHRRLQSKTLAELEAIFTETAEAQELASGIGDAAEARQWLRTKLQAVGEKAGFPGVLDTAKPGKLRTIPIPVARCYTYSWNQDSFDILQEILLKEQELLQPEILDDEEDEDEEDEEEDLDADGHCAERDSVLSTGSAASHASTLSLASSQASGPTLSRQLLTSFVSGLSDGVDSGYMEDIEESAYERPRRPGGHERRGHRRPGQKFNRIYKLFKSTSQMVLRRDSRSLEGSPDSGPPLRRAGSLCSPLDSPTLPPSRAQGSRSLPQPKLSPQLPGWLLAPASRHQRRRPFLSGDEDPKASTLRVVVFGSDRISGKVVRAYSNLRRLENNRPLLTRFFKLQFFYVPVKRSRGTGTPTSPAPRSQTPPLPTDAPRHPGPAELGAAPWEESTNDISHYLGMLDPWYERNVLGLMHLPPEVLCQSLKAEPRPLEGSPAQLPILADMLLYYCRFAARPVLLQVYQTELTFITGEKTTEIFIHSLELGHSAATRAIKASGPGSKRLGIDGDREAVPLTLQIIYSKGAISGRSRWSNMEKLCTSVNLSKACRQQEELDSSTEALTLNLTEVVKRQTPKSKKGFNQISTSQIKVDKVQIIGSNSCPFAVCLDQDERKILQSVIRCEVSPCYKPEKSSLCPPPQRPSYPPAPATPDLCSLLCLPIMTFSGALP	

More lines, now with the values behind:

Binder	binding result [1]	binding result [2]	also measured
human p84 (regulatory subunit of PI3Kγ), co-expressed with human p110γ (natural protein) MESSDVELDLQRSVQAVLRELSTQAPALQSNQGMWRWSLHKKVERDPGKSPVLVRILLRELEKAESQDLRHVIIPLLHTVMYVLTKATGITEELYQRIYAFCTRLLTLPTPYCTVALDCAIRLKTEMAVPGTLYQRMVIAEQNLTNELYPYQERVFLFVDPELVSASVCSALLLEIEAAQAQQTPETCMRHVVSHALQAALGEACHAGALHRKLQASPRRTLEHYFHAVVAALEQMASEASPSREGHVERLEEIYCSLLGPAAGRCGGDLVQERPPSIPLPSPYITFHLWTGEEQLWKELVLFLRPRSQLRLSADLEVLDLQGLRPDRELARVSVLSTDSGIERDLPTGADELPAPGSPEMERAGLQRKGGIKKRAWPLDFLMPGSWDGPPGLHRRTGRPSGDGEMLPGVSRLHTARVLVLGDDRMLGRLAQAYHRLRKRETQKFCLTPRLSLQLYYIPVLAPEKPAASRQPELGELATFLGRVDPWYQSNVNTLCPAIHKLAEMPPSLDTSRTVDPFILDVITYYIRMGTQPIYFQIYTVKIFFSDLSQDPTEDIFLIELKVKIQDSKFPKDGFSPRRRGVAEGPGAELSLCYQKALLSHRPREVTVSLRATGLILKAIPASDTEVSGSSHCPLPAAPVTDHTCLNVNVTEVVKSSNLAGKSFSTVTNTFRTNNIQIQSRDQRLLTLSLDKDDQRTFRDVVRFEVAPCPEPCSGAQKSKAPWLNLHGQQEVEAIKAKPKPLLMPINTFSGIVQ	binds		
mouse p84 (regulatory subunit of PI3Kγ), co-expressed with human p110γ (natural protein) MESSDVELDFQRSVQAVLRELNTPNPALQSNQGMWRWSLHKKVERNPGKSSILVRILLRELEKAESEDGRRVIIPLLLTLMSVLTKATGIPEDLYHRAYTFCTRLLTLPAPYSTVALDCAIRLKTETAVPGTLYQRTVIAEQNLISELYPYQERVFLFVDPELVSASVCSALLLEIQAAQEQQTPEACMRHVVSHALQAALGEACHTGALNRKLQASSRRVLEYYFHAVVAAIEQVASEDSPSRLGHLEKMEEIYCSLLGPATTRRHCVGDLLQDRLPSIPLPSPYITFHLWTDQEQLWKELVLFLRPRSQLRLSADLDALDLQGFRLDRDLARVSTDSGIERDLPLGSDELPDPSSSEMERAALQRKGGIKKRVWPPDFFMPGSWDGPPGLHRRTGRPSGDGELLPGVSRVHTARVLVLGDDRMLGRLAQAYYRLRKRETKKFCLTPRLSLQLYYIPVLAPQVTGQDPEASRKPELGELASFLGRVDPWYESTVNTLCPAILKLAEMPPYLDTSRTVDPFILDVITYYVRMGTQPIYFQLYKVKIFTSLSHDPTEDIFLTELKVKIQDSKSPKEGSSPRRRGAAEGTGAELSMCYQKALLSHRPREVTVSLRATGLVLKAIPAGDTEVSGFFHCTSPNAASATDCSCLHVSVTEVVKSSNLAGRSFTTSTNTFRTSSIQVQSQDQRLLTLWLDKDGRRTFRDVVRFEVSPCPEPCSRTQKSKTSALNSHGQETEKNMAKPNSLLMPINTFSGIIQ		binds	
EE-tagged mouse p84 (for X-ray crystallography) (natural protein) MESSDVELDFQRSVQAVLRELNTPNPALQSNQGMWRWSLHKKVERNPGKSSILVRILLRELEKAESEDGRRVIIPLLLTLMSVLTKATGIPEDLYHRAYTFCTRLLTLPAPYSTVALDCAIRLKTETAVPGTLYQRTVIAEQNLISELYPYQERVFLFVDPELVSASVCSALLLEIQAAQEQQTPEACMRHVVSHALQAALGEACHTGALNRKLQASSRRVLEYYFHAVVAAIEQVASEDSPSRLGHLEKMEEIYCSLLGPATTRRHCVGDLLQDRLPSIPLPSPYITFHLWTDQEQLWKELVLFLRPRSQLRLSADLDALDLQGFRLDRDLARVSTDSGIERDLPLGSDELPDPSSSEMERAALQRKGGIKKRVWPPDFFMPGSWDGPPGLHRRTGRPSGDGELLPGVSRVHTARVLVLGDDRMLGRLAQAYYRLRKRETKKFCLTPRLSLQLYYIPVLAPQVTGQDPEASRKPELGELASFLGRVDPWYESTVNTLCPAILKLAEMPPYLDTSRTVDPFILDVITYYVRMGTQPIYFQLYKVKIFTSLSHDPTEDIFLTELKVKIQDSKSPKEGSSPRRRGAAEGTGAELSMCYQKALLSHRPREVTVSLRATGLVLKAIPAGDTEVSGFFHCTSPNAASATDCSCLHVSVTEVVKSSNLAGRSFTTSTNTFRTSSIQVQSQDQRLLTLWLDKDGRRTFRDVVRFEVSPCPEPCSRTQKSKTSALNSHGQETEKNMAKPNSLLMPINTFSGIIQ			binding result [3]: binds

From article PMC10068899 (Cell Reports, 2023)
